Assay results from patent US12247058 (Bristol-Myers Squibb, dated 2025).
Non-standard residues stand in square brackets, D forms with d. Phe(4-Ac) = CC(=O)c1ccc(C[C@H](N)C(=O)O)cc1

T1: human β-klotho with a C-terminal FLAG tag, stably expressed in a clonal HEK-293 cell line (human, UniProt Q86Z14 1-1044)
T1 sequence: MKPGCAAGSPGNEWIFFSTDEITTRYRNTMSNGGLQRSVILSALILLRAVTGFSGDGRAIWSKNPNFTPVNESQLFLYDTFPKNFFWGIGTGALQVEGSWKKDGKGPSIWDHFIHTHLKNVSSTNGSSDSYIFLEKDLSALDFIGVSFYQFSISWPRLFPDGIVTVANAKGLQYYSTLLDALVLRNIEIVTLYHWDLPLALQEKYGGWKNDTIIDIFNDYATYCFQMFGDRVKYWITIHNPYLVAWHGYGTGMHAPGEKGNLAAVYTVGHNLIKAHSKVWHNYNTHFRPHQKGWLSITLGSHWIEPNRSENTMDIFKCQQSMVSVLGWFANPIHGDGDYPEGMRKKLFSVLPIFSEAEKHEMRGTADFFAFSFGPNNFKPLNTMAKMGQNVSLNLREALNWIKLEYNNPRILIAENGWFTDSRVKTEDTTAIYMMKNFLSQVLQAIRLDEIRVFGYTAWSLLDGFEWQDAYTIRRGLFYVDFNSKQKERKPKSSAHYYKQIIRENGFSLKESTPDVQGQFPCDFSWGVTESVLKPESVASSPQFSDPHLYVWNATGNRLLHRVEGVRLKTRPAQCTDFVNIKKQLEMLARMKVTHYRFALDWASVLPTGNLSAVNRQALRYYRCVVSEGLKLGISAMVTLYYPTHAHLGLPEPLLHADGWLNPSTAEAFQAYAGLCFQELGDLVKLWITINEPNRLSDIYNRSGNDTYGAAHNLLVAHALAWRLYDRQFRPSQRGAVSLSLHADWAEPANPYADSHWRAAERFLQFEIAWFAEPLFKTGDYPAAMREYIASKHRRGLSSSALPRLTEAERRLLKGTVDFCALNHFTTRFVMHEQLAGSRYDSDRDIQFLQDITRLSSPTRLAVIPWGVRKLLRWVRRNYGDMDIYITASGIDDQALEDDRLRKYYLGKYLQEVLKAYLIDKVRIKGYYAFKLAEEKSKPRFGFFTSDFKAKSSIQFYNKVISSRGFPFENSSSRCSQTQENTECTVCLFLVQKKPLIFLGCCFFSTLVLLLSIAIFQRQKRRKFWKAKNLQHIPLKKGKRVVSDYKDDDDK


Key:
[1] = molecular target: T1, human β-klotho with a C-terminal FLAG …; experiment: cell-based or functional assay
[2] = molecular target: T1, human β-klotho with a C-terminal FLAG …; experiment: cell-based or functional assay; remark: listed apart in the source

Binder | pERK EC50 [1] [nM] | EC50 in the pERK assay [2] [nM]
Compound 23 (ligand) MHPIPDSSPLLQFGGQVRQRYLYTDDAQQTEAHLEIREDGTVGGAADQSPESLLQLKALKPGVIQILGVKTSRFLCQRPDGALYGSLHFDPEACSFRELLLEDGYNVYQSEAHGLPLHLGGGPARFLPLPGLPPAPPEPPGILAPQPPDVGSSDPLSMVEPSQGRSPSYAS | 30 | –
Compound 10 (ligand) MHPIPDSSPLLQFGGQVRQRYLYTDDAQQTEAHLEIREDGTVGGAADQSPESLLQLKALKPGVIQILGVKTSRFLCQRPDGALYGSLHFDPEACSFRELLLEDGYNVYQSEAHGLPLHLGSGGPARFLPLPGLPPAPPEPPGILAPQPPDVGSSDPLSMVEPSQGRSPSYAS | 21.9 | –
Pegylated Compound 6 (ligand) MHPIPDSSPLLQFGGQVRQRYLYTDDAQQTEAHLEIREDGTVGGAADQSPESLLQLKALKPGVIQILGVKTSRFLCQRPDGALYGSLHFDPEACSFRELLLEDGYNVY[Phe(4-Ac)](PEG 30 kDa)SEAHGLPLHLPGHKSRDPAPRGPARFLPLPGLPPAPPEPPGILAPQPPDVGSSDPLSMVEPSQGRSPSYAS | – | 20
Pegylated Compound 5 (ligand) MHPIPDSSPLLQFGGQVRQRYLYTDDAQQTEAHLEIREDGTVGGAADQSPESLLQLKALKPGVIQILGVKTSRFLCQRPDGALYGSLHFDPEACSFRELLLEDGYNVY[Phe(4-Ac)](PEG 30 kDa)SEAHGLPLHLPGDKSRDPAPRGPARFLPLPGLPPAPPEPPGILAPQPPDVGSSDPLSMVEPSQGRSPSYAS | – | 24
Compound 19 (ligand) MHPIPDSSPLLQFGGQVRQRYLYTDDAQQTEAHLEIREDGTVGGAADQSPESLLQLKALKPGVIQILGVKTSRFLCQRPDGALYGSLHFDPEACSFRELLLEDGYNVYQSEAHGLPLHLGSGPHRDPAPRGPARFLPLPGLPPAPPEPPGILAPQPPDVGSSDPLSMVEPSQGRSPSYAS | 5.1 | –
Compound 5 (ligand) MHPIPDSSPLLQFGGQVRQRYLYTDDAQQTEAHLEIREDGTVGGAADQSPESLLQLKALKPGVIQILGVKTSRFLCQRPDGALYGSLHFDPEACSFRELLLEDGYNVYQSEAHGLPLHLPGDKSRDPAPRGPARFLPLPGLPPAPPEPPGILAPQPPDVGSSDPLSMVEPSQGRSPSYAS | 69.2 | –
Compound 12 (ligand) MHPIPDSSPLLQFGGQVRQRYLYTDDAQQTEAHLEIREDGTVGGAADQSPESLLQLKALKPGVIQILGVKTSRFLCQRPDGALYGSLHFDPEACSFRELLLEDGYNVYQSEAHGLPLHLPHHSGRDPAPRGPARFLPLPGLPPAPPEPPGILAPQPPDVGSSDPLSMVEPSQGRSPSYAS | 31.9 | –
Compound 6 (ligand) MHPIPDSSPLLQFGGQVRQRYLYTDDAQQTEAHLEIREDGTVGGAADQSPESLLQLKALKPGVIQILGVKTSRFLCQRPDGALYGSLHFDPEACSFRELLLEDGYNVYQSEAHGLPLHLPGHKSRDPAPRGPARFLPLPGLPPAPPEPPGILAPQPPDVGSSDPLSMVEPSQGRSPSYAS | 39.1 | –
Pegylated Compound 11 (ligand) MHPIPDSSPLLQFGGQVRQRYLYTDDAQQTEAHLEIREDGTVGGAADQSPESLLQLKALKPGVIQILGVKTSRFLCQRPDGALYGSLHFDPEACSFRELLLEDGYNVY[Phe(4-Ac)](PEG about 30 kDa)SEAHGLPLHLGSGHRDPAPRGPARFLPLPGLPPAPPEPPGILAPQPPDVGSSDPLSMVEPSQGRSPSYAS | – | 30
Compound 20 (ligand) MHPIPDSSPLLQFGGQVRQRYLYTDDAQQTEAHLEIREDGTVGGAADQSPESLLQLKALKPGVIQILGVKTSRFLCQRPDGALYGSLHFDPEACSFRELLLEDGYNVYQSEAHGLPLHLGGHRDPAPRGPARFLPLPGLPPAPPEPPGILAPQPPDVGSSDPLSMVEPSQGRSPSYAS | 3.9 | –
Compound 2 (ligand) MHPIPDSSPLLQFGGQVRQRYLYTDDAQQTEAHLEIREDGTVGGAADQSPESLLQLKALKPGVIQILGVKTSRFLCQRPDGALYGSLHFDPEACSFRELLLEDGYNVYQSEAHGLPLHLGSGRGPARFLPLPGLPPAPPEPPGILAPQPPDVGSSDPLSMVEPSQGRSPSYAS | 4.6 | –
Compound 11 (ligand) MHPIPDSSPLLQFGGQVRQRYLYTDDAQQTEAHLEIREDGTVGGAADQSPESLLQLKALKPGVIQILGVKTSRFLCQRPDGALYGSLHFDPEACSFRELLLEDGYNVYQSEAHGLPLHLGSGHRDPAPRGPARFLPLPGLPPAPPEPPGILAPQPPDVGSSDPLSMVEPSQGRSPSYAS | 28.2 | –
Compound 22 (ligand) MHPIPDSSPLLQFGGQVRQRYLYTDDAQQTEAHLEIREDGTVGGAADQSPESLLQLKALKPGVIQILGVKTSRFLCQRPDGALYGSLHFDPEACSFRELLLEDGYNVYQSEAHGLPLHLSGGPAPRGPARFLPLPGLPPAPPEPPGILAPQPPDVGSSDPLSMVEPSQGRSPSYAS | 4.1 | –
Pegylated Compound 21 (ligand) MHPIPDSSPLLQFGGQVRQRYLYTDDAQQTEAHLEIREDGTVGGAADQSPESLLQLKALKPGVIQILGVKTSRFLCQRPDGALYGSLHFDPEACSFRELLLEDGYNVY[Phe(4-Ac)](PEG about 30 kDa)SEAHGLPLHLGSGRDPAPRGPARFLPLPGLPPAPPEPPGILAPQPPDVGSSDPLSMVEPSQGRSPSYAS | – | 30
Pegylated Compound 20 (ligand) MHPIPDSSPLLQFGGQVRQRYLYTDDAQQTEAHLEIREDGTVGGAADQSPESLLQLKALKPGVIQILGVKTSRFLCQRPDGALYGSLHFDPEACSFRELLLEDGYNVY[Phe(4-Ac)](PEG about 30 kDa)SEAHGLPLHLGGHRDPAPRGPARFLPLPGLPPAPPEPPGILAPQPPDVGSSDPLSMVEPSQGRSPSYAS | – | 42
Pegylated Compound 10 (ligand) MHPIPDSSPLLQFGGQVRQRYLYTDDAQQTEAHLEIREDGTVGGAADQSPESLLQLKALKPGVIQILGVKTSRFLCQRPDGALYGSLHFDPEACSFRELLLEDGYNVY[Phe(4-Ac)](PEG about 30 kDa)SEAHGLPLHLGSGGPARFLPLPGLPPAPPEPPGILAPQPPDVGSSDPLSMVEPSQGRSPSYAS | – | 28
Pegylated Compound 12 (ligand) MHPIPDSSPLLQFGGQVRQRYLYTDDAQQTEAHLEIREDGTVGGAADQSPESLLQLKALKPGVIQILGVKTSRFLCQRPDGALYGSLHFDPEACSFRELLLEDGYNVY[Phe(4-Ac)](PEG about 30 kDa)SEAHGLPLHLPHHSGRDPAPRGPARFLPLPGLPPAPPEPPGILAPQPPDVGSSDPLSMVEPSQGRSPSYAS | – | 39
Pegylated Compound 19 (ligand) MHPIPDSSPLLQFGGQVRQRYLYTDDAQQTEAHLEIREDGTVGGAADQSPESLLQLKALKPGVIQILGVKTSRFLCQRPDGALYGSLHFDPEACSFRELLLEDGYNVY[Phe(4-Ac)](PEG about 30 kDa)SEAHGLPLHLGSGPHRDPAPRGPARFLPLPGLPPAPPEPPGILAPQPPDVGSSDPLSMVEPSQGRSPSYAS | – | 30
Compound 3 (ligand) MHPIPDSSPLLQFGGQVRQRYLYTDDAQQTEAHLEIREDGTVGGAADQSPESLLQLKALKPGVIQILGVKTSRFLCQRPDGALYGSLHFDPEACSFRELLLEDGYNVYQSEAHGLPLHLPGNKSPHRDPAPRGPARFLPLPGLPPAPPEPPGILAPQPPDVGSSDPLSMVEPSQGRSPSYAS | 28 | –
Compound 7 (ligand) MHPIPDSSPLLQFGGQVRQRYLYTDDAQQTEAHLEIREDGTVGGAADQSPESLLQLKALKPGVIQILGVKTSRFLCQRPDGALYGSLHFDPEACSFRELLLEDGYNVYQSEAHGLPLHLPGDKSPHRDPAPRGPARFLPLPGLPPAPPEPPGILAPQPPDVGSSDPLSMVEPSQGRSPSYAS | 28.4 | –
